Where two headings read alike, the source gives them in different places.
T1: canine IL-31 (dog)
T1 chain: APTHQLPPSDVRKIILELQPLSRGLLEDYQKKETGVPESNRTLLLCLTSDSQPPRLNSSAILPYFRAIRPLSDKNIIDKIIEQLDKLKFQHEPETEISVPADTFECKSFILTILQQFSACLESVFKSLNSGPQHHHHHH


Experiments:
canine IL-31 [1] = target: T1, canine IL-31; test: ELISA
canine IL-31 [2] = target: T1, canine IL-31; test: BLI
canine IL-31 [3] = target: T1, canine IL-31; test: BLI
canine IL-31 [4] = target: T1, canine IL-31; test: ELISA
canine IL-31 [5] = target: T1, canine IL-31; test: BLI
canine IL-31 [6] = target: T1, canine IL-31; test: ELISA

| EC50 (canine IL-31 [1]) [µg/mL] | Kd (canine IL-31 [2]) [nM] | Kd (canine IL-31 [3]) [nM] | EC50 (canine IL-31 [4]) [µg/mL] | Kd (canine IL-31 [5]) [nM] | EC50 (canine IL-31 [6]) [µg/mL] | Binder |
| --- | --- | --- | --- | --- | --- | --- |
| 0.105 | 15.5 |  |  |  |  | Caninized 47C1-1-H3L3 (antibody, V domains shown) VH: EVQLVESGGDLVKPGGSLRLSCVASGFSLSTYAMNWVRQAPGKGLEWISIIYSNGDGYYASWAKGRFTISRDNSKNTLYLQMNSLRAEDTAVYYCARGIYSQTTGYFNLWGQGTLVTVSS VL: MDTRAPTQLLGLLLLWLPGARCEIVMTQTPASLSLSQEGKVTITCQASESIGNTLAWYQQKPGQPPKLLIYGASTLASGVPSRFSGSGSGTDFTFTINSLQPEDVATYYCQSYWSSTTTFRDTFGQGTKVEIKR |
| 0.113 | 15.1 |  |  |  |  | Caninized 47C1-1-H2L2 (antibody, V domains shown) VH: EVQLVESGGDLVKPGGSLRLSCVASGFSLSTYAMNWVRQAPGKGLEWISIIYSNGDGYYASWAKGRFTISRDNAKNTLYLQMNSLRAEDTAVYYCARGIYSQTTGYFNLWGQGTLVTVSS VL: MDTRAPTQLLGLLLLWLPGARCEIVMTQTPASLSLSQEGKVTITCQASESIGNTLAWYQQKPGQPPKLLIYGASTLASGVPSRFSGSGSGTDFTFTINSLQPEDVATYYCQSYWSSTTTFRDTFGQGTKVEIKR |
| 0.0934 | 5.35 |  |  |  |  | Caninized 38E2-1-H3L3 (antibody, V domains shown) VH: EVQLVESGGDLVKPGGSLRLSCVASAFSLSGYYMGWVRQAPGKGLEWISIIGGSSNTFYASWAKGRFTISKDNSKNTLYLQMNSLRAEDTAVYFCARHGDTDYISGTYFDLWGQGTLVTVSS VL: EIVMTQSPASLSLSQGEKVTITCQASQSISIYLAWYQQKPGQPPKLLIYRASTLASGVPSRFSGSGSGTDFSFTITSLQPEDVATYYCQQGYEDSNVESLFGQGTKVEIKR |
| 0.0978 | 8.04 |  |  |  |  | Caninized 38E2-1-H3L2 (antibody, V domains shown) VH: EVQLVESGGDLVKPGGSLRLSCVASAFSLSGYYMGWVRQAPGKGLEWISIIGGSSNTFYASWAKGRFTISKDNSKNTLYLQMNSLRAEDTAVYFCARHGDTDYISGTYFDLWGQGTLVTVSS VL: EIVMTQSPASLSLSQGEKVTITCQASQSISIYLAWYQQKPGQPPKLLIYRASTLASGVPSRFSGSGSGTDFSFTISSLQPEDVATYYCQQGYEDSNVESLFGQGTKVEIKR |
| 0.158 | 389 |  |  |  |  | Caninized 35C9-1-H1L2 (antibody, V domains shown) VH: EVQLVESGGDLVKPGGSLRLSCVASGFTFSSYWMSWVRQAPGKGLQWLSDIYATGSTYYANWATGRFTGSRDNAKNTLYLQMNSLTIEDTATYFCARHSSRSGIDFDLWGQGTLVTVSS VL: EIVMTQSPASLSLSQEEKVTITCQASQSIGNYLAWYQQKPGQAPKQLIYRASTLASGVPSRFSGSGSGTDFTLTISDLECADVAVYYCQQGYDSNNVDNFFGQGTKVEIKR |
| 0.19 | 495 |  |  |  |  | Caninized 35C9-1-H1L1 (antibody, V domains shown) VH: EVQLVESGGDLVKPGGSLRLSCVASGFTFSSYWMSWVRQAPGKGLQWLSDIYATGSTYYANWATGRFTGSRDNAKNTLYLQMNSLTIEDTATYFCARHSSRSGIDFDLWGQGTLVTVSS VL: EIVMTQSPASLSLSQEEKVTITCQASQSIGNYLAWYQQKPGQAPKQLIYRASTLASGVPSRFKGSGSGTEFTLTISDLECADVAVYYCQQGYDSNNVDNFFGQGTKVEIKR |
| 0.103 | 11.9 | 11.9 | 0.105 |  |  | Chimeric Antibody 35C9-1 (antibody, V domains shown) VH: QSLEESGGRLVTPGTPLTLTCTASGFSLSSYWMSWVRQAPGKGLEWIGDIYATGSTYYANWATGRFTGSKTSTTVDLTITSPTIEDTATYFCARHSSRSGIDFDLWGQGTLVTVSS VL: AYDMTQTPASVEAAVGGTVTIKCQASQSIGNYLAWYQQKPGQPPKQLIYRASTLASGVPSRFKGSGSGTEFTLTISDLECADGATYYCQQGYDSNNVDNFFGGGTEVVVRR |
|  | 12.7 | 12.7 |  | 12.7 | 0.0023 | 35C9-1 rabbit-derived (antibody, V domains shown) VH: QSLEESGGRLVTPGTPLTLTCTASGFSLSSYWMSWVRQAPGKGLEWIGDIYATGSTYYANWATGRFTGSKTSTTVDLTITSPTIEDTATYFCARHSSRSGIDFDLWGQGTLVTVSS VL: AYDMTQTPASVEAAVGGTVTIKCQASQSIGNYLAWYQQKPGQPPKQLIYRASTLASGVPSRFKGSGSGTEFTLTISDLECADGATYYCQQGYDSNNVDNFFGGGTEVVVR |
|  |  |  |  | 43.3 | 0.000196 | 19D1-1 rabbit-derived (antibody, V domains shown) VH: QSLEESGGRLVTPGTPLTLTCTASGFSLSSYWMSWVRQAPGKGLEWIGDIYASGSEYYASWVNGRFTGSKTSTTVDLKITSPTIEDTATYFCARHSSRSGIDFDLWGQGTLVTVSS VL: AYDMTQTPASVEAAVGGTVTIKCQASQSISNYLAWYQQKPGQPPKQLIYRASTLASGVPSRFKGSGSGTEFTLTMSDLECADAATYYCQQGYDSNNVDNLFGGGTEVVVK |
|  | 0.815 | 0.815 |  | 2.55 | 0.000915 | 38E2-1 rabbit-derived (antibody, V domains shown) VH: QSLEESGGRLVTPGTPLTLTCTASAFSLSGYYMGWVRQAPGKGLEYIGIIGGSSNTFYASWAKGRFTISKTPTTVDLKITSPTTEDTATYFCARHGDTDYISGTYFDLWGQGTLVTVSS VL: AYHMTQTPASVEVPVGGTVTIKCQASQSISIYLAWYQQKPGQPPKLLIYRASTLASGVPSRFIGSGSGTEFSLTISDLECADAATYYCQQGYEDSNVESLFGGGTEVVVK |
|  |  |  |  |  | 0.00195 | 18E8-1 rabbit-derived (antibody, V domains shown) VH: QSLEESGGRLVTPGTPLTLTCTASAFSLSGYYMGWVRQAPGKGLEYIGIIGGSSNTFYASWAKGRFTISKTPTTVDLKITSPTTEDTATYFCARHGDTDYISGTYFDLWGQGTLVTVSS VL: AYHMTQTPASVEVPVGGTVTIKCQASQSISIYLAWYQQKPGQPPKLLIYKASTLASGVPSRFIGSGSGTEFSLTISDLECADAATYYCQQGYEDSNVESLFGGGTEVVVK |
| 0.0928 | 2.49 | 2.49 | 0.094 |  |  | Chimeric Antibody 38E2-1 (antibody, V domains shown) VH: QSLEESGGRLVTPGTPLTLTCTASAFSLSGYYMGWVRQAPGKGLEYIGIIGGSSNTFYASWAKGRFTISKTPTTVDLKITSPTTEDTATYFCARHGDTDYISGTYFDLWGQGTLVTVSS VL: AYHMTQTPASVEVPVGGTVTIKCQASQSISIYLAWYQQKPGQPPKLLIYRASTLASGVPSRFIGSGSGTEFSLTISDLECADAATYYCQQGYEDSNVESLFGGGTEVVVKR |
| 0.102 | 8.32 | 8.32 | 0.0985 |  |  | Chimeric Antibody 47C1-1 (antibody, V domains shown) VH: QSVEESGGRLVTPGTPLTLTCTVSGFSLSTYAMNWVRQAPGKGLEWIGIIYSNGDGYYASWAKGRYTISKTSSTTVDLKVTSPTTEDTATYFCARGIYSQTTGYFNLWGQGTLVTVSS VL: DIVMTQTPASVEAAVGGIVIIKCQASESIGNTLAWYQQKPGQPPKLLIYGASTLASGVSSRFKGSGSGTEVTLTISDLECADAATYYCQSYWSSTTTFRDTFGGGTEVVVKR |
|  | 3.75 | 3.75 |  | 3.75 | 0.00179 | 47C1-1 rabbit-derived (antibody, V domains shown) VH: QSVEESGGRLVTPGTPLTLTCTVSGFSLSTYAMNWVRQAPGKGLEWIGIIYSNGDGYYASWAKGRYTISKTSSTTVDLKVTSPTTEDTATYFCARGIYSQTTGYFNLWGQGTLVTVSS VL: DIVMTQTPASVEAAVGGIVIIKCQASESIGNTLAWYQQKPGQPPKLLIYGASTLASGVSSRFKGSGSGTEVTLTISDLECADAATYYCQSYWSSTTTFRDTFGGGTEVVVK |
|  |  |  |  |  | 0.000232 | 44B4-1 rabbit-derived (antibody, V domains shown) VH: QSLEESGGRLVTPGTPLTLTCTASGFSLSNSYMGWVRQAPGKGLEYIGFIDTGGTTYYASWAKGRFTISRTSTTVDLKMTSPTTEDTATYFCAKGPDDYFFNLWGQGTLVTVSS VL: DIVMTQTPASVEAAVGGTITINCQASESISSWLAWYQQKPGQPPKLLIYKASTLESGVPSRFKGSGSGTEFTLTISGVQCADAATYYCQVYYFSYNSYNFFGGGTEVVVK |
|  |  |  |  |  | 0.00208 | 30G5-1 rabbit-derived (antibody, V domains shown) VH: QSLEESGGRLVTPGGSLTLTCTVSGFSLSSYAMIWVRQAPGEGLEWIGTIDPSDNTDYASWAKGRFTISKTSSTTVDLKLTSLTTEDTATYFCASHSYDDYGRDVWNLWGQGTLVTVSS VL: IVMTQTPSSKSVPVGDTVTINCQASQSVDNNNDLSWYQQKPGQPPKLLIYYTSSLPSGVPSRFKGSGSGTQFTLTISDLECDDAATYYCVGYKSSTTDATAFGGGTEVMVK |
|  |  |  |  |  | 0.00321 | 19C7-1 rabbit-derived (antibody, V domains shown) VH: QSVEESGGRLVTPGTPLTLTCTVSGFSLNSYAMGWVRQAPGKGLEYIGIINSSGSTWYATWVKGRFTISKTSTTVDLKMTSVTTEDTATYFCARNRDPFYITDMDLWGQGTLVTVSS VL: QVLTQTPSSVSAAVGGTVTINCQASQNIYSYLSWYQQKPGQPPKLLIYRASTLASGVPSRFKGSGSGTEFTLTISGVECADAATYYCQQGDSYSDVDNIFGGGTEVVVK |
|  |  |  |  | 113 | 0.000841 | 5H4-2 rabbit-derived (antibody, V domains shown) VH: QSLEESGGDLVKPGASLTLTCTASGFTLSSDYYMCWVRQAPGKGLELIACITTSTVGTWYASWAKGRFTISKTSSTTVTLQMTSLTAADTATYFCGREDGTYADYFNLWGPGTLVTVSS VL: AYDMTQTPASVEVAVGGTVTIKCQASQSISSWLAWYQQKPGQRPKLLIYRASTLASGVSSRFKGSGSGTQFTLTISGVECADAATYYCQQGYRSSNLDNAFGGGTEVVVK |
|  |  |  |  |  | 0.00282 | 30A11-1 rabbit-derived (antibody, V domains shown) VH: QEQLKESGGGLVTPGGTLTLTCTASGFTISGYYMNWVRQAPGKGLEWIGFIYSPSTTYYANWAKGRFTISKTSTTVDLKITSPTTEDTATYFCARGHTTEIRLDLWGQGTLVTVSS VL: AVLTQTPSPVSAAVGGTVSISCQSSESVYKNNRLSWFQQKPGQPPKLLIFDASTLASGVSSRFKGSGSGTQFTLTISGVQCDDAATYYCLGEFRDSSDNSFGGGTEVVVK |

Reference: patent US20260327301 (published 2026)
